Laboratory results: the DeepSol protein solubility set

test: soluble on expression in E. coli; label from the status in PepcDB or PDB records

| Sequence | soluble on expression in E. coli |
| --- | --- |
| MKKPFSKLFGLKNKDDIIGHIEEDRNSNVESIQIERIVPNRYQPRQVFEPNKIKELAESIHEHGLLQPIVVRPIEEDMFEIIAGERRFRAIQSLNLPQADVIIRDMDDEETAVVALIENIQRENLSVVEEAEAYKKLLEIGDTTQSELAKSLGKSQSFIANKLRLLKLAPKVLLRLREGKITERHARAVLSLSDSEQEALIEQVIAQKLNVKQTEDRVRQKTGPEKVKAQNLRFAQDVTQARDEVGKSIQAIQQTGLHVEHKDKDHEDYYEIKIRIYKR | not soluble |
| MQYVAYAEGAKMASGAAKETSSNLFGIWDTWNSNPQMRKDHANELKKKSDEAYNNDMEELKKTRSAFDQEIAKRHAAADMQMSELVKSNNTELKTLQDQFNRDEASHGMAMKMMVREHAEKMKELRSEGREAQERAEREHRMKMSEAEEEHRKEKEIAQEKMDAAKREGSMKIALVEEEKQKIMKERSDELEKYTREMNEMAKNHQEERKKHNAIIGQKKMEMIGSKRDQLKIESEKILESMRNDINLLLAVEIKQNGSHLVEKLIDLFESVKTVKCLMDTVQTELTTIGDEVPEITPGQLSTFDDIKRHKTLFDNRVARFRKNVVTSSFTDAKLYEICMTTVSDFEKIMDKQDMKLVCHHLPKAVENQDFKKIKYYADMASKLNNQFSQEVQHLAAGFSNVSKTYAIDRSNQAAIQN | not soluble |
| MQQYIGIDVGGTHVKYGVINSDGEELTHHQFDTPEDASTFTRKWQDVVARCQQDYDIAAIGVSFPGHINPHNGHAAKAGALAYLDDVNLMELFSGLTDLPLVVENDANCAALGEMWRGAGQHYENMVCITIGTGIGGGIIVGRELYRGAHFHAGEFGVMPVGNNGESMHKIASTSGLMASCRQALALPAEEMPPADVIFERMATDVHLREAVNDWARYLSRGVYSVISMFDPGVVLIGGGISEQEKLYPLLTRHLETFEMWEALQVPIQPCQLGNQAGRLGAVWLAQQKLDRG | not soluble |
| VETASLDVYAKYVLRSICQQEWVGERCLKSLCEDSNDLQDPVLSSAQAQRLMQLICYPHRLLDNEDGENPQRQRIKRILQNLDQWTMRQSSLELQLMIKQTPNNEMNSLLENIAKATIEVFQRSAETGSSSGSTASNMPSSSKTKPVLSSLERSGVWLVAPLIAKLPTSVQGHVLKAAGEELEKGQHLGSSSRKERDRQKQKSMSLLSQQPFLSLVLTCLKGQDEQREGLLTSLYSQVHQIVN | not soluble |
| MRSMNTHAVLQFLSGNGIAILQFFHQLILQGKTQDDLTRDYALDRAWVGSVMKLAKELFDPRPSPSRDECISVAKELGLGIEVLKAINPALGRLNKKASMTKDDLRLRLYREARGMTPAEAKAHANTRVVALNDACGATPRKPAVRISKSTDAAGQRHIHASLDDATASAVAEKLHAGARWLTKKTPSLSYSQAMAEIFAIAILDSPALGGRKRREGLILLPADGYTHRGNGMLATTDGSLIPAHKLAEHLLEEYGYAMLYALNDEGVPEPVDLYRTKRYANDKQRLMITADQLTCSHPDCHRLANNSHIHHCTAWERGGETNVKNLVAACATHNRRNDDDPERHKNGYFRRMPHSGCAGFQPADPSLPPRRTRVPFAAYSARVWACDHFGVTV | not soluble |
| MVKLMEVYEGKAKKMIPIDDDKLIMEFKDDATAFDGTKKARFKGKGWLNAQLSVIFFKLLEEHGIKTHFIGVAGGNRLIVEKLDMYPLEVVVRNVVAGSLKKRLPLPEGYELPEPIVELYYKNDELHDPMINYYHAKVLGISLDEIKKIEEIALKVNEILKDYLAKKGIILVDFKLEFGKDKNGDIVLADEISPDTCRFWDAKTKRSLDKDVFRFDKGDLIEAYKEIYERITGEKPEF | soluble |
| LTGFQVGPMLQYQTGFHGIVLDFSLLYVERGIKLTNTSNRRSADIKTQSIDIPIELKWEMGMSNNFDLFLGVGPSFSFLVDKDNWGRKLAHIAVDVIDKDLPSMGWRSTEVGLNLGGGVKIVNHLMVSCYYNIGLTQSAKHNIGGNKHDAIDQIFDGDVFESKNRYWQLSLAYVF | not soluble |
| MARRNYQVERNKLEEKDPTWLMQKGQIQPLVSSLVVLNVEGERILARYTAKELFPTFDVEKKFEADLLKKSQTIPDLEENTGVFEHGQHIVVCRASEDLLFFVTSRIYENEVILSEVLTCWVDSLVKVLKNLPLNELNLLQHYEVLLLLVDELVDQEGVIMETDANELSSRTEFAMYSTDPRDLIPELTEQGFSHALQTAKQHLARTILK | not soluble |
| GPLGSMKPINIQDQFLNQIRKENTYVTVFLLNGFQLRGQVKGFDNFTVLLESEGKQQLIYKHAISTFAPQKNVQLELE | soluble |
| MSLGIKAVIFDLDGVIVSTDEYHYRAWKAMADEEGIYFDKRINERLRGVGRMESLEIILEKAKKTYNTKEKIQMTERKNFIYRELLNELTPKHILKGVMNVLETLRAKNIKIAIGSSSKNTSIILEKIKLDKYFDAVADGREIKKSKPNPEVFLLAAKKLKVSPEECLIVEDADAGVEAAIAGGMKVLAVGYASNNIKANYKFKDLSCVDIKEVICKEGHHHHHH | soluble |
| MIKSLKQLAIQAGLEYLGEDVSIQTVAINSNEVRQDCLFVAIVANRDGHEFIPSAIANGAKAILVSKKQGLDIPQVVCGNTIKGLRALAKEYRKSLTMPIISLTGSCGKTSVKEMIVTLLGERKVHFTQGNLNNYLGVPMTILETPHDVDFAVIEAGTNVGGEIKAAADIIQPNIAMITNVGACHLENLKTLDGVMIEKGELLKALPRDGFCIVNLDDERIPNYAKLLECKKISCSMTNPKADILVLDYRATSNSYAFKIRIFSQEYDYQLPNIGKHNLFNSVLAIASVVAVGLEPKDFLQNTQNIKNYKGRFSTEKLSDKLTLIDDTYNASAGAVQAAIEDLAEFDGKKILAISSMRELGDEAENYHRKMGQWLKKANLDKIFLFGEKNLIDYVLAEYSNQNAKYYESKDELNNDLAKILDEYKSQSTKLTVKGARSFKMEEVVKFVKENL | not soluble |
| MSLKARSPYSPAEEDALFMDLPTGPRGQQAQPQRAEKNGMLPASYGPGEQNGTGGYQRAFPPRTNPEKHSQRKSNLAQVEHWARAQKGDSRSLPLDQTLPRQGPGQSLSFPENYQTLPKSTRHPSGGSSPPPRNLPSDYKYAQDRASHLKMSSEERRAHRDGTVWQLYEWQQRQQFRHGSPTAPICLGSPEFTDQGRSRSMLEVPRSISVPPSPSDIPPPGPPRVFPPRRPHTPAERVTVKPPDQRRSVDISLGDSPRRARGHAVKNSSHVDRRSMPSMGYMTHTVSAPSLHGKSADDTYLQLKKDLEYLDLKMTGRDLLKDRSLKPVKIAESDTDVKLSIFCEQDRVLQDLEDKIRALKENKDQLESVLEVLHRQMEQYRDQPQHLEKIAYQQKLLQEDLVHIRAELSRESTEMENAWNEYLKLENDVEQLKQTLQEQHRRAFFFQEKSQIQKDLWRIEDVTAGLSANKENFRILVESVKNPERKTVPLFPHEGHHHHHH | not soluble |
| MTRQEELAAARAALHDLMTGKRVATVQKDGRRVEFTATSVSDLKKYIAELEVQTGMTQRRRGPAGFYV | soluble |
| MSKPEFIARQGRKPTGWLGHIVARVMARETRPENDRALSFLDLADGDSLIDIGCGHGETLFQADRIVRLSGSVGVDFSEVMLKRARARNRDAVWDTRMAFHCADTAALPFPDKRFGKALSVHTIYFWPNPAAHLAEAFRVLRRGGRFLFCYRSTADRRAVEEFPDTVYRFPSVQEVEEKLKLVGFLGPETTTEDIKGLEHHHHHH | not soluble |
| MGSDKIHHHHHHMEFSAKQIAAFIQGEIIGDENATVHTFAKIEEGMPGAISFLSNPKYTPYIYETQSSIVLVNKDFVPEHEIRATLIKVDNAYESLAKLLNLYEMSKPKKQGIDSLAYIAPSAKIGENVYIGAFAYIGENAVIGDNTQIYPHTFVGDGVKIGNGCLLYSNVNVYHDCRIGNECILHSGAVIGADGFGFAPTPNGYDKIPQIGIVILEDKVDIGANTCVDRATMGATIIHSGAKIDNLVQIAHNDEIGSHTVMAAQVGIAGSAKIGEWCMFGGQVGIAGHITIGDRVNLGAQSGIPSSIKADSVLIGTPPMEPKAYFKAAVVTKNLPDMQKEIRNLRKEVEELKQLLNK | not soluble |
| MAHHHHHHMKAGKSGHRIYVGNIPGSMSKQEIIKAFEEFGKITEIDIKYNRNTNGTNYAFIEYESYKSAEKTIENKNGQKLKGYMLKVEYSIDKKNKEGGDLIALGGREAVSKGLLTNVRLPKNRSHYRVVVKNFPRKKIKLDGIKTFLMKAGKVIYTQLEDEITIAEYDCREGMLRAVNTLDRTMFNSTRKVYVRVLKDLPYDDSDADDSAQGCR | not soluble |
| AHHHHHHGSKVLVTGFEPFGGEKINPTERIAKDLDGIKIGDAQVFGRVLPVVFGKAKEVLEKTLEEIKPDIAIHVGLAPGRSAISIERIAVNAIDARIPDNEGKKIEDEPIVPGAPTAYFSTLPIKKIMKKLHERGIPAYISNSAGLYLCNYVMYLSLHHSATKGYPKMSGFIHVPYIPEQIIDKIGKGQVPPSMCYEMELEAVKVAIEVALEELL | soluble |
| MSLSQLAYEKILNLIINGKYKPGNLLKEDELANTLNISRTPVREALARLERDGIIIKSGKSYSVIPLSAEDIIQIYEIRIPLEAEASKLASIRGTEEELKKMLDIIEEIKRVKEDAEPLTLAELNGKLHRTISEASHNKFLADILENIRLKLKIVRVTLFTSFQRREEELREHSEIVTAIIERNPDKAYQLMKEHELNVLEYVKKNILPILFR | soluble |
| MGLEDDFLLEDADDEKTVEFIKNYLPQELKEKFEDDELYYFLDLIDEYYSESGILDAQPDNDGYVNIDLEEVVAYIVKEAKKDEMGEYDPEEILFVVQGEMEYGNSLGQVD | not soluble |
| MKEVRIVFQPGEISVPVAAGTTIMEAMNRSGLGEDFPCGGRGKCGKCRVKVREGREDFTAIDEDHLTAQELAEGVRLACATKINRDMMVEMQSPKKLQHHILIDSAARAFHIHPHLVKVFAEIAQPSLSEHKSDWQRLQESLAGLGCSVHDLQAPLSVLRRLPDTLRESTNRVTTIVYGSQVLGVEQGDTTGTLLGMAFDIGTTTIVGYLLDLNSGRELEVVSTLNPQAQYGGDVISRITFAGKEEKGLDTLHQAVTGAMNRLIGEAVDKAGVSRTQLYGISVAANTTMHHLFLGITPRSIGMSPYVSAINQGLVVAPGELGLEINKAGRVFVLPNIAGFVGADTTAVLLASDLEKSDHVTLILDIGTNGEIVLGSKNRMVACSAAAGPAFEGAQITSGMRGADGAIDHISFDHGLSYTVIGNGRPIGICGSALLDGVAGFVELGMINKRGKFLEPEKLTHPSALKLKDRLIKYEETWAFQLVEAGQTRHGRPILITQNDIRELQLAKGAIAAGVRILQEAMGIECEDIKEVLLAGAFGNYLNPHSACVIGLIPRELESRIKTIGNAAGNGAKIALLSAQEFSRAKDLAGGVSFVELGSYPGFNTIFAQNTYFKLD | soluble |
| MGSDKIHHHHHHMKHLSLEALRSFSAVIELGSMTLAGERMGRSQPAISLQLKKLEQQLGVELLTRQGSGFALTADGDVLFDYAQRMLALNDQAWAQFEPQQVSGKVRLGITSEFASSLLPKVLGQFAQVYPQVTLQVTSALSKDLLSGLGQQFDIILALREQTNKSDVLIQREELVWVGLPGLLEQPGWPMVVAPEGCIYRRRAEQSLQRAHQPYRITYTNTDFSGLTAALNSGLGITVLAKSTVPKDIPILESFSDNKPLPNPGSVNVIMRLAGGASSAASQLADYLKARI | not soluble |
| MSLSGNYLPRNTLVESLGHAMLKLSGWKIEGQLPALDKFVVIGAHHTSNWDFVAFLAAKFVLRLNARWFGKHTLFNGPLGGLMRRWGGIPIQRHLKLNTVDQAIQAFREHREFMLIIAPEGTRKKVDRWRMGFYHIARGAGVPVVPAALDYENRRIVIGEPFWPTGNEDADLCSLIGFYRPFIPKKPHYAFLGDEGHHHHHH | soluble |
